± gives the standard deviation.
Assay: protein stability index of a GFP-peptide fusion (GPS, HEK-293T) (PSI 1-6); higher = more stable
Conditions: c terminus: a fixed tail appended
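Also: 24-mer peptide tiles fused after GFP, lentivirally expressed, FACS-sorted into six equal bins by GFP/DsRed ratio, decoded by Illumina sequencing, PSI is the read-weighted mean bin number.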

Row | Sequence | protein stability index (treatment: DMSO) | protein stability index (treatment: MLN4924 1 uM, 8 h)
1 | GSALTFREEQCAAYNHRTDLFKSF [ADAMTS4] | 2.97 ± 0.17 | 2.88 ± 0.22
2 | VSGSWERDQQVEAAQRALVEVLGP [RETREG3] | 3.9 ± 0.33 | 4.08 ± 0.094
3 | YQHLEEDMKSLKQVLEMKNQQIHE [MTUS2] | 4.07 ± 0.11 | 4.27 ± 0.36
4 | FKDEWTQLDMFYRNWALKESFIKA [AASDHPPT] | 2.02 ± 0.16 | 2.22 ± 0.14
5 | TIEECCRKQKQELCEKFDYLYGIL [TRIM55] | 1.88 ± 0.54 | 2.41 ± 0.85
6 | ELQKIVQAGDKDLDGQLDFEEFVH [SLC25A25] | 3.93 ± 0.046 | 4.19 ± 0.21
7 | TEITELRRTLQGLEIELQSQLSMK [KRT13] | 2.78 ± 0.27 | 2.85 ± 0.18
8 | LRVMTTNIRSARGNNPNGREAKMI [ELOA2] | 3.25 ± 0.18 | 3.49 ± 0.26
9 | CKESSPMPVICGPEENYPSLQMSS [NANOGP8] | 3.65 ± 0.27 | 3.74 ± 0.25
10 | RGPPPRSGGPPPKRSAPSGPVRSS [RBMX] | 4.4 ± 0.2 | 4.56 ± 0.086
11 | ELSEKNFQLNQDKMNFSTLRNIQG [POMP] | 2.69 ± 0.59 | 3.27 ± 0.44
12 | VPPGDYLFQVVINPNFEVAESDYS [LOXL2] | 2.31 ± 0.37 | 2.12 ± 0.43
13 | QHEEICLGLFTLILTEPAQAQKCY [INTS3] | 2.24 ± 0.46 | 2.32 ± 0.41
14 | PPTTPQNEEIRAVGRLKRERSMSE [MFF] | 4.82 ± 0.28 | 5.05 ± 0.14
15 | LVENIIDIYKQECSSRPLQKGSHP [TRIM63] | 2.36 ± 0.17 | 2.56 ± 0.13
16 | EIVSIWILSFILAIPEAIGFVMVP [EDNRA] | 2.86 ± 0.18 | 3.03 ± 0.17
17 | KKGLFLKHVEYEVSSQRFKSSVYR [SNX8] | 2.38 ± 0.14 | 2.91 ± 0.28
18 | AVSESYSAPGACEEPTERGNLEVG [FBXO34] | 5.49 ± 0.12 | 5.57 ± 0.26
19 | MGGAVSAGEDNDELIDNLKEAQYI [PCMTD2] | 5.1 ± 0.15 | 4.95 ± 0.21
20 | WVRSVSFSHDGLHVASLADDKMVR [WSB1] | 2.66 ± 0.4 | 3.54 ± 0.45
21 | ESGPSAEKYSVATQLFIGGVTGWC [FUNDC2] | 2.14 ± 0.29 | 1.97 ± 0.38
22 | GIKGLVRDSHGKGIPNAIISVEGI [CPXM2] | 2.8 ± 0.067 | –

Row | Sequence | protein stability index (treatment: DMSO) | protein stability index (treatment: MLN4924 1 uM, 8 h)
23 | VEKFIYENHPDVFSDSSMDHFQKF [MYOZ1] | 2.94 ± 0.2 | 3.09 ± 0.19
24 | SSITRQKKRLQELALALKKCKPSL [TMEM120A] | 2.39 ± 0.41 | 2.81 ± 0.39
25 | EAIKGLNGQKPLGAAEPITVKFAN [ELAVL3] | 3.94 ± 0.22 | 4.06 ± 0.28
26 | YLASLCMCFGPKKVKPAEAETAGA [SLC29A1] | 2.6 ± 0.28 | 2.83 ± 0.23
27 | WGLEEEDFQPREEAMLYHNQTAEL [P3H4] | 4.61 ± 0.084 | 4.5 ± 0.48
28 | SSPNLQVSSDGTLKYMEVTLRPTD [PCDHGC5] | 3.84 ± 0.092 | 4.12 ± 0.33
29 | GNRILDEKEQEKMRQDLEEERVAL [PKD2L1] | 5.24 ± 0.74 | 5.57 ± 0.27
30 | VYTRHGVPISVTGIAQVKIQGQNK [FLOT1] | 2.72 ± 0.12 | 2.63 ± 0.39
31 | NSPGAYRSHPDNAIPIKSWFSDPS [CTDNEP1] | 3.37 ± 0.23 | 3.4 ± 0.12
32 | RDLKTQNILLDKHRMVVKIGDFGI [NEK8] | 2.24 ± 0.18 | 2.24 ± 0.16
33 | SQVPTGEVFYYSCEYNFVSPSKSF [CFHR2] | 2.59 ± 0.85 | 2.08 ± 0.26
34 | FYRLYQDLETHRLPCTSRCPRPCR [SCNN1D] | 2.8 ± 0.26 | 2.99 ± 0.35
35 | PPDKGEEQVNFCESSNDFGPYEGG [ZBTB22] | 5.53 ± 0.098 | 5.41 ± 0.26
36 | GRCLEVEMSKDANFGLRLVVQRCS [GALNT9] | 2.27 ± 0.15 | 2 ± 0.41
37 | KLPLPSTLRSHLKSFSMAKGLNAR [RAB40A] | 2.56 ± 0.18 | 2.68 ± 0.15
38 | FMAYEQIKRLVGSDQETLRIHERL [SLC25A25] | 3.08 ± 0.26 | 2.97 ± 0.42
39 | WIQVTSLRIFVWLLLLYFMQVIAI [PHTF1] | 3.08 ± 0.43 | 2.93 ± 0.42
40 | SEPIRRAGKSGTSTPTTPGSTAIT [MAP2] | 4.66 ± 0.25 | 4.65 ± 0.2
41 | GLGYFSCHSHTVVQDYSYFFFLRM [CCDC3] | 2.66 ± 0.71 | 2.3 ± 0.55
42 | AESKGTGREKPGPLDFEAYSAAAL [FCHO1] | 4.8 ± 0.12 | 5.04 ± 0.22
43 | LEEVAVQQTGDDDEVDDFEDFIFS [PBXIP1] | 5.43 ± 0.36 | 5.41 ± 0.27
44 | QATCNVHKSAFNDWFSGHLNFQIE [FADS1] | 2.44 ± 0.28 | 2.48 ± 0.2

Row | Sequence | protein stability index (treatment: DMSO) | protein stability index (treatment: MLN4924 1 uM, 8 h)
45 | NVRDRDSGRNGEVSLDISPDLPFQ [PCDHGC5] | 4.76 ± 0.42 | 4.59 ± 0.22
46 | VQIRRLEAAGESLEEEIRRKQILL [ZC2HC1C] | 3.31 ± 0.37 | 3.45 ± 0.37
47 | VRDMMANFHLNDLEAPHEDDAEGE [TCF25] | 5.48 ± 0.13 | 5.3 ± 0.31
48 | SVINNGHNQKVHMHMVDLMSSIIC [PDS5B] | 2.02 ± 0.27 | 2.53 ± 0.3
49 | EGDTVSQELLDTVLVNLVPAHKNL [PDS5B] | 3.65 ± 0.24 | 3.94 ± 0.34
50 | GAFQAQEKELVFDIDMTDYDDVRR [PRIM1] | 4.72 ± 0.4 | 4.71 ± 0.14
51 | GARPVSSAASVYAGAGGSGSRISV [KRT18] | 3.66 ± 0.34 | 3.75 ± 0.19
52 | CDFKIDAGDRFLEALGFSWHDTCF [PDLIM7] | 2.6 ± 0.5 | 2.47 ± 0.46
53 | HCHIEESEHVLKKAHKYSELIILY [VPS39] | 2.21 ± 0.33 | 2.12 ± 0.3
54 | IYVHILKDTRMAEEYCHKHYDRNK [VPS39] | 2.19 ± 0.39 | 2 ± 0.28
55 | TPLTFTKVSEGQADIMISFVRGDH [MMP1] | 2.64 ± 0.28 | 2.65 ± 0.26
56 | ILFLPCLRKKILKIRHGWEDVTKI [STEAP1] | 2.95 ± 0.39 | 2.46 ± 0.42
57 | QCRHTLEQHNWNIEAAVQDRLNEQ [FAF2] | 3.89 ± 0.17 | 3.87 ± 0.18
58 | MACPYSVLISGDIKDRLKKKEDCL [FAM98B] | 2.87 ± 0.071 | 3.49 ± 0.38
59 | QTLRQELSLPYLPSGTPELEVPKP [CHIT1] | 4.7 ± 0.15 | 4.69 ± 0.36
60 | KYDPHTGHWTNVTPMATKRSGAGV [KLHL12] | 3.69 ± 0.47 | 3.78 ± 0.17
61 | NCIGIRDFALHYCLHHVHYLATEY [GAN] | 3.1 ± 0.51 | 3.32 ± 0.33
62 | RAKGLLGTTVTFDDLMGILCKSVL [FEM1C] | 2.76 ± 0.63 | 2.54 ± 0.22
63 | HYVAQTGILWLLMNNCFLNLSPRK [GAGE1] | 2.72 ± 0.38 | 3.584 ± 0.027
64 | NFKAHVSPHEMLQAVVLCSKKTFQ [USP39] | 2.25 ± 0.25 | 2.26 ± 0.3
65 | LLCGAAFGRLVANVLKSYIGLGHI [CLCN6] | 2.66 ± 0.42 | 3.14 ± 0.46

Source: the supplement of paper PMC10567573
